B1: Tumor necrosis factor alpha-induced protein 3 (Homo sapiens), P21580 (parent)
chain: MAEQVLPQALYLSNMRKAVKIRERTPEDIFKPTNGIIHHFKTMHRYTLEMFRTCQFCPQFREIIHKALIDRNIQATLESQKKLNWCREVRKLVALKTNGDGNCLMHATSQYMWGVQDTDLVLRKALFSTLKETDTRNFKFRWQLESLKSQEFVETGLCYDTRNWNDEWDNLIKMASTDTPMARSGLQYNSLEEIHIFVLCNILRRPIIVISDKMLRSLESGSNFAPLKVGGIYLPLHWPAQECYRYPIVLGYDSHHFVPLVTLKDSGPEIRAVPLVNRDRGRFEDLKVHFLTDPENEMKEKLLKEYLMVIEIPVQGWDHGTTHLINAAKLDEANLPKEINLVDDYFELVQHEYKKWQENSEQGRREGHAQNPMEPSVPQLSLMDVKCETPNCPFFMSVNTQPLCHECSERRQKNQNKLPKLNSKPGPEGLPGMALGASRGEAYEPLAWNPEESTGGPHSAPPTAPSPFLFSETTAMKCRSPGCPFTLNVQHNGFCERCHNARQLHASHAPDHTRHLDPGKCQACLQDVTRTFNGICSTCFKRTTAEASSSLSTSLPPSCHQRSKSDPSRLVRSPSPHSCHRAGNDAPAGCLSQAARTPGDRTGTSKCRKAGCVYFGTPENKGFCTLCFIEYRENKHFAAASGKVSPTASRFQNTIPCLGRECGTLGSTMFEGYCQKCFIEAQNQRFHEAKRTEEQLRSSQRRDVPRTTQSTSRPKCARASCKNILACRSEELCMECQHPNQRMGPGAHRGEPAPEDPPKQRCRAPACDHFGNAKCNGYCNECFQFKQMYG

Variants of: B1
Details: with ATG16L1, Q676U5-1
Chain of ATG16L1, Q676U5-1 (Q676U5 whole entry): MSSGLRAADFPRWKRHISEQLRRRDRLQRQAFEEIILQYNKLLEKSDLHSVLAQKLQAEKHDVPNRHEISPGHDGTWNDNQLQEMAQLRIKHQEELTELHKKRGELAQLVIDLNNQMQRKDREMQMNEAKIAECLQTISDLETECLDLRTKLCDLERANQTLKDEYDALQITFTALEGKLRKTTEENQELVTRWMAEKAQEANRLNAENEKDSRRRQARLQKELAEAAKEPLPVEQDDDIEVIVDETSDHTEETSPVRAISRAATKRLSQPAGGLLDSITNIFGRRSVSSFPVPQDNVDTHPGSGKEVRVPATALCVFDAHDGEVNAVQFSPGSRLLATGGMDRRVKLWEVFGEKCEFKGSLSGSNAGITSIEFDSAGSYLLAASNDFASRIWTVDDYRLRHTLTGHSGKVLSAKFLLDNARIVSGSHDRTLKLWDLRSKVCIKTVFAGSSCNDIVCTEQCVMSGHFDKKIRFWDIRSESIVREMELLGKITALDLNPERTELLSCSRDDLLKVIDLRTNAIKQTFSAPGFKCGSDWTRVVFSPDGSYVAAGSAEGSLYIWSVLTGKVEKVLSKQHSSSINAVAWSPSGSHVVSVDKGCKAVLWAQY

| Variant | effect of a mutation on the interaction |
| --- | --- |
| Y188A;L191A | with no effect |
| Y246A;V249A | with no effect |
| F127A;L130A | with no effect |
| A125V | with no effect |
| F224A;L227A | with no effect |
| F257A;L260A | with no effect |
| Y233A;L236A | with no effect |
| W168A;L171A | with no effect |
| F127C | with no effect |
